According to patent publication US20170190782A1 (ABGENOMICS COOPERATIEF U A, published 2017):
Each block holds one molecule with its values, some of them ahead of it.

How the values were obtained:
[1] = molecular target: human P-Selectin Glycoprotein Ligand-1 (PSGL-1) (human) (UniProt Q14242); experiment: FACS, inhibition of recombinant human P-selectin binding to activated T cells; competitor P-selectin
[2] = molecular target: T1, human P-Selectin Glycoprotein Ligand-1 (PSGL-1) (human, UniProt Q14242 42-412); experiment: as above
T1 construct: whole, on cells; also called hCD162; human CD162
T1 sequence (looked up): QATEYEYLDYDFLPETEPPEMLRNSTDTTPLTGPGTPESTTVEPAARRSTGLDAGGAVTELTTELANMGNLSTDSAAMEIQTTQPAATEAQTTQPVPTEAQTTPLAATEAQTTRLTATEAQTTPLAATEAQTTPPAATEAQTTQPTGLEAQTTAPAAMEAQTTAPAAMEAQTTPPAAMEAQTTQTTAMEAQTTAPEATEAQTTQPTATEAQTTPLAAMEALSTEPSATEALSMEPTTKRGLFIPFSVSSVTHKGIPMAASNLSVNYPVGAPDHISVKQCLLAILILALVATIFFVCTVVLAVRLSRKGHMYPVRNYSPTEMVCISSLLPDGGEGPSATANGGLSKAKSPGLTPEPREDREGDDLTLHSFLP
Method: (§1) Human PBMC were activated with 1% PHA for 2 days and maintained in IL-2-containing medium for 3 days. The cells were incubated with titrated 9F9, 15A7, 43B6, KPL-1 (an PSGL-1 antagonist), or a control antibody (9E10) for 30 minutes, followed by the addition of recombinant human P-selectin (1.25 μg/ml). Binding of P-selectin to activated T cells was measured by anti-P-selectin-FITC analyzed on FACS. Consistent with previous reports, KPL-1 almost completely abolished P-selectin's binding to activate T cells at a low concentration (0.31 μg/ml). 43B6 blocked binding of P-selectin to activated T cells as effectively as KPL-1 did, whereas a higher concentration of 9F9 was required to achieve the same effect. Indeed, 0.08 μg/ml KPL or 43B6 was needed to abolish 50% of the binding. In contrast, 5 μg/ml 9F9 was required.

[3] = molecular target: T2, E. coli expressed hCD162 fragment 42-119 fused to human immunoglobulin gamma 1 heavy chain constant region (human, UniProt Q14242 42-119); experiment: sandwich ELISA, fusion protein captured by goat anti-human IgG, antibody at 2 µg/ml
T2 construct: range 42-119; Expressed in E. coli BL21(DE3) from pET-32a; NdeI/BglII cloning adds a start Met and junction residues that are not spelled out; also called fusion protein covering residues 42-119; not shown: human immunoglobulin gamma 1 heavy chain constant region
T2 sequence (looked up): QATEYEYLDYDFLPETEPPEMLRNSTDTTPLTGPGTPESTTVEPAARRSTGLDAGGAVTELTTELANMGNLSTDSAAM
Method: (§2) A sandwich ELISA was conducted to study the interaction between the hCD162 fragments and each of 15A7, 9F9, and 43B6. 96-well microtiter plates were coated with goat anti-human IgG (Southern Biotechnology, Cat. No. 2040-01) antibody (2 μg/ml, 50 μl/well) overnight at 4° C. Plates were blocked by incubation with 0.25% of BSA in PBS (150 μl/well) for 1 hour at 37° C. The blocked plates were then incubated with fusion proteins containing various fragments of human CD162 (2 μg/ml) for 2 hours at room temperature. After washing 4 times with PBS containing 0.05% of Tween 20 (PBST), the plates were incubated with testing antibodies (2 μg/ml) for 1.5 hours at room temperature.
(§3) After incubation, the plates were washed 4 times with PBST. 50 μl of 1 to 3000 diluted goat anti-mouse IgG conjugated with alkaline phosphatase (Southern Biotechnology, Cat. No. 1031-04) was then added to each well and the plates were incubated for 1 hour at 37° C. Enzyme reaction was carried out by adding 50 μl of an alkaline phosphatase substrate solution (1 alkaline phosphatase substrate tablet dissolved in 5 ml of substrate buffer containing 0.012 M of Na₂CO₃, 0.16 M of NaHCO₃ and 1 mM of MgCl₂ at pH 8.6), and absorbance at 405 nm was determined.

[4] = molecular target: T3, E. coli expressed hCD162 fragment 42-80 fused to human immunoglobulin gamma 1 heavy chain constant region (human, UniProt Q14242 42-80); experiment: as above
T3 construct: range 42-80; Expressed in E. coli from pET-32a; junction residues are not spelled out; not shown: human immunoglobulin gamma 1 heavy chain constant region
T3 chain (looked up): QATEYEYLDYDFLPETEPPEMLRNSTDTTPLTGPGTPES
Method: as §2, §3

[5] = molecular target: T4, E. coli expressed hCD162 fragment 42-319 fused to human immunoglobulin gamma 1 heavy chain constant region (human, UniProt Q14242 42-319); experiment: as above
T4 construct: Expressed in E. coli from pET-32a; junction residues are not spelled out; not shown: human immunoglobulin gamma 1 heavy chain constant region
T4 sequence (looked up): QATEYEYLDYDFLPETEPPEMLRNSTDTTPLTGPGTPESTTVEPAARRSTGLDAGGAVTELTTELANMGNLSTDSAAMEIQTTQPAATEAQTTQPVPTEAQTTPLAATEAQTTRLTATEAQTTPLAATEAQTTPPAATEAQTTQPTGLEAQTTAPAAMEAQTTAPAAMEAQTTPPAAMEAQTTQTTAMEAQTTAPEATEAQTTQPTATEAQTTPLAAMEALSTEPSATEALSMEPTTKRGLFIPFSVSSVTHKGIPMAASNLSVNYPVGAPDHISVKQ
Method: as §2, §3

[6] = molecular target: T1, human P-Selectin Glycoprotein Ligand-1 …; experiment: cell-based or functional assay
[7] = molecular target: T1, human P-Selectin Glycoprotein Ligand-1 …; experiment: FACS competition against Biotin-labeled mouse 15A7 on CD162-expressing Sp2/0 cells
Method: (§4) Sp2/0 transfectants stably expressing human CD162 were used as source of human CD162 antigen. Biotin-labeled mouse 15A7 was used as tracer. Increasing amounts of competitor antibodies (mouse, chimeric, or humanized 15A7) were mixed with 35 ng of Biotin-labeled mouse 15A7 and incubated with 1×10⁵ CD162-expressing Sp2/0 cells for 1.5 hours at 4° C. with constant shaking. After washing, secondary antibody, Streptavidin-PE (Becton Dickinson Immunocytometry System Inc. Cat. No. 349023) was added to the mixture. After incubating for 45 minutes at 4° C., the cells were washed again, resuspended in 300 μl of PBS-1% of FBS, and subjected to FACS analysis.

[8] = molecular target: T1, human P-Selectin Glycoprotein Ligand-1 …; experiment: derived from FACS competition against Biotin-labeled mouse 15A7 on CD162-expressing Sp2/0 cells
Method: as §4

[9] = molecular target: T1, human P-Selectin Glycoprotein Ligand-1 …; experiment: FACS, inhibition of recombinant human P-selectin binding to activated T cells; competitor P-selectin; the antibody binds PSGL-1 but does not block
Method: as §1

[10] = molecular target: T2, E. coli expressed hCD162 fragment …; experiment: sandwich ELISA, fusion protein captured by goat anti-human IgG
Method: as §2, §3

[11] = molecular target: T3, E. coli expressed hCD162 fragment 42-80 …; experiment: as above
Method: as §2, §3

- IC50 [1]: 0.08 µg/mL
- concentration that almost completely abolished P-selectin's binding [1]: 0.31 µg/mL
Molecule: KPL-1 anti-hCD162 antibody (PharMingen)

- IC50 [2]: 5 µg/mL
- binding result [3]: binds
- binding result [4]: binds
- binding result [5]: binds
- Percentage of apoptotic T cells (annexin V positive, CD3 gated), Day 0 non-activated human T cells [6]: 5.82%
- Percentage of apoptotic T cells (annexin V positive, CD3 gated), Day 7 in vitro activated human T cells [6]: 28.7%
B1: mouse 9F9 antibody (antibody, V domains shown)
VL: DVLMTQTPLSLPVSLGDQASISCRSSQSIVNSNGNTYLEWYLQKPGQSPKLLIYKVSNRFSGVPDRFSGSGSGTDFTLKISRVEAEDLGVYYCFQGSHVPWTFGGGTKLEIK
VH: EVQLVETGGGLVQPKGSLKLSCAASGFTFNTNAMNWVRQAPGKGLEWVARIRSKSNNYATYYADSVKDRFTISRDDTQSMIYLQMNNLKTEDTGMYYCVRGGSYWYFDVWGAGTTVTVSS
notes: Mouse IgG1 from hybridoma m128-9F9; also called m128-9F9

- IC50 [7]: ~4.51 µg/mL
- Ka [8]: 3.33e+07 M⁻¹
B2: humanized 15A7 antibody (antibody, V domains shown)
VH: EVQLVESGGGLVQPGGSLRLSCAASGFTFSSFGMHWVRQAPGKGLEWVAYINGGSSTIFYANAVKGRFTISRDNAKNTLYLQMNSLRAEDTAVYYCARYASYGGGAMDYWGQGTLVTVSS
VL: DIQMTQSPSSLSASVGDRVTITCRSSQSIVHNDGNTYFEWYQQKPGKAPKLLIYKVSNRFSGVPSRFSGSGSGTHFTLTISSLQPEDFATYYCFQGSYVPLTFGQGTKVEIK
notes: V regions were inserted into the pVk and pVg4 vectors (human kappa light chain constant region, human IgG4 heavy chain constant region); also called Hu15A7

- IC50 [9]: > 20 µg/mL
- binding result [5]: binds
- IC50 [7]: 3.72 µg/mL
- binding result [10]: no binding (tested: 2 µg/ml)
- binding result [11]: no binding (tested: 2 µg/ml)
- Ka [8]: 4.03e+07 M⁻¹
- Percentage of apoptotic T cells (annexin V positive, CD3 gated), Day 0 non-activated human T cells [6]: 5.23%
- Percentage of apoptotic T cells (annexin V positive, CD3 gated), Day 7 in vitro activated human T cells [6]: 51.7%
B3: mouse 15A7 antibody (antibody, V domains shown)
VL: DILMTQTPLSLPVSLGDQASISCRSSQSIVHNDGNTYFEWYLQKPGQSPKLLIYKVSNRFSGVPDRFSGSGSGTHFTLNISRVEAEDLGIYYCFQGSYVPLTFGAGTKLELK
VH: DVQLVESGGGLVQPGGSRKLSCAASGFTFSSFGMHWVRQAPEKGLEWVAYINGGSSTIFYANAVKGRFTISRDNPKNTLFLQMTILRSEDTAIYYCGRYASYGGGAMDYWGQGTSVTVSS
notes: Mouse IgG1 from hybridoma m152-15A7; also called m15A7; m152-15A7

- IC50 [7]: ~5.71 µg/mL
- Ka [8]: 2.62e+07 M⁻¹
B4: chimeric 15A7 antibody (antibody, V domains shown)
VH: B3 VH
VL: B3 VL
notes: Mouse 15A7 VL on the human light chain constant region (pVk) and mouse 15A7 VH on the human IgG1, IgG2 or IgG4 heavy chain constant region (pVg1, pVg2, pVg4)

- IC50 [2]: 0.08 µg/mL
- binding result [3]: binds
- binding result [4]: binds
- binding result [5]: binds
- Percentage of apoptotic T cells (annexin V positive, CD3 gated), Day 0 non-activated human T cells [6]: 6.57%
- Percentage of apoptotic T cells (annexin V positive, CD3 gated), Day 7 in vitro activated human T cells [6]: 49.4%
B5: mouse 43B6 antibody (antibody, V domains shown)
VL: ENVLTQSPAIMSASPGEKVTMTCRASSTVNSTYLHWFQQKSGASPKLWIYGSSNLASGVPARFSGSGSGTSYSLTISSVEAEDAATYYCQQYSGYPLTFGAGTTLELK
VH: EVQLQQSGPDLVKPGALVKISCKASGYSFTAYYIHWVKQSHGKSLEWIGRVNPNTGGTSYNPKFKGKAILNVDKSSSTAYMELRSLTSEDSAVYYCARSGSPYYRYDDWGQGTTLTVSS
notes: Mouse IgG1 from hybridoma m166-43B6; also called m166-43B6; M166-43136
